Results: article PMC3797246 (Structure (London, England : 1993), 2013)
Where a chain is given by its changes, count along the chain named. Names and notes keep the numbering of the source.

T1: SARAH domain of human RASSF5 (RASSF5^SARAH, residues 366-413) (human, UniProt Q8WWW0 366-413)
T1 chain (looked up): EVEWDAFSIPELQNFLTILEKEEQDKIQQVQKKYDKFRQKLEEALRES

B1: linker-deletion Mst2 (Mst2^ΔL, residues 9-313 and 428-491) (enzyme, human, UniProt Q13188 9-313, looked up)
chain: SKLKKLSEDSLTKQPEEVFDVLEKLGEGSYGSVFKAIHKESGQVVAIKQVPVESDLQEIIKEISIMQQCDSPYVVKYYGSYFKNTDLWIVMEYCGAGSVSDIIRLRNKTLIEDEIATILKSTLKGLEYLHFMRKIHRDIKAGNILLNTEGHAKLADFGVAGQLTDTMAKRNTVIGTPFWMAPEVIQEIGYNCVADIWSLGITSIEMAEGKPPYADIHPMRAIFMIPTNPPPTFRKPELWSDDFTDFVKKCLVKNPEQRATATQLLQHPFIKNAKPVSILRDLITEAMEIKAKRHEEQQRELEEEENWKVPQDGDFDFLKNLSLEELQMRLKALDPMMEREIEELRQRYTAKRQPILDAMDAKKRRQQNF
B2: Mst2 D456A, full-length, in vitro translated (enzyme, human, UniProt Q13188 1-491, looked up)
chain: MEQPPAPKSKLKKLSEDSLTKQPEEVFDVLEKLGEGSYGSVFKAIHKESGQVVAIKQVPVESDLQEIIKEISIMQQCDSPYVVKYYGSYFKNTDLWIVMEYCGAGSVSDIIRLRNKTLIEDEIATILKSTLKGLEYLHFMRKIHRDIKAGNILLNTEGHAKLADFGVAGQLTDTMAKRNTVIGTPFWMAPEVIQEIGYNCVADIWSLGITSIEMAEGKPPYADIHPMRAIFMIPTNPPPTFRKPELWSDDFTDFVKKCLVKNPEQRATATQLLQHPFIKNAKPVSILRDLITEAMEIKAKRHEEQQRELEEEEENSDEDELDSHTMVKTSVESVGTMRATSTMSEGAQTMIEHNSTMLESDLGTMVINSEDEEEEDGTMKRNATSPQVQRPSFMDYFDKQDFKNKSHENCNQNMHEPFPMSKNVFPDNWKVPQDGDFDFLKNLSLEELQMRLKALAPMMEREIEELRQRYTAKRQPILDAMDAKKRRQQNF
modifications: 35S-methionine label
B3: Mst2 R474A, full-length, in vitro translated (enzyme, human, UniProt Q13188 1-491, looked up)
chain: B2 chain with A456D, R474A
modifications: 35S-methionine label
B4: Mst2 R467A, full-length, in vitro translated (enzyme, human, UniProt Q13188 1-491, looked up)
chain: B2 chain with A456D, R467A
modifications: 35S-methionine label
B5: Mst2 L445A, full-length, in vitro translated (enzyme, human, UniProt Q13188 1-491, looked up)
chain: B2 chain with L445A, A456D
modifications: 35S-methionine label
B6: Mst2 R469A, full-length, in vitro translated (enzyme, human, UniProt Q13188 1-491, looked up)
chain: B2 chain with A456D, R469A
modifications: 35S-methionine label
B7: Mst2 K473A, full-length, in vitro translated (enzyme, human, UniProt Q13188 1-491, looked up)
chain: B2 chain with A456D, K473A
modifications: 35S-methionine label
B8: Mst2 L466A, full-length, in vitro translated (enzyme, human, UniProt Q13188 1-491, looked up)
chain: B2 chain with A456D, L466A
modifications: 35S-methionine label
B9: catalytically inactive mutant of the human Mst2 kinase domain (Mst2^KD/D146N) (domain or fragment, UniProt Q13188 16-313, looked up)
chain: EDSLTKQPEEVFDVLEKLGEGSYGSVFKAIHKESGQVVAIKQVPVESDLQEIIKEISIMQQCDSPYVVKYYGSYFKNTDLWIVMEYCGAGSVSDIIRLRNKTLIEDEIATILKSTLKGLEYLHFMRKIHRNIKAGNILLNTEGHAKLADFGVAGQLTDTMAKRNTVIGTPFWMAPEVIQEIGYNCVADIWSLGITSIEMAEGKPPYADIHPMRAIFMIPTNPPPTFRKPELWSDDFTDFVKKCLVKNPEQRATATQLLQHPFIKNAKPVSILRDLITEAMEIKAKRHEEQQRELEEEE
B10: full-length Mst2 (Mst2^FL, residues 9-491) (enzyme, human, UniProt Q13188 9-491, looked up)
chain: SKLKKLSEDSLTKQPEEVFDVLEKLGEGSYGSVFKAIHKESGQVVAIKQVPVESDLQEIIKEISIMQQCDSPYVVKYYGSYFKNTDLWIVMEYCGAGSVSDIIRLRNKTLIEDEIATILKSTLKGLEYLHFMRKIHRDIKAGNILLNTEGHAKLADFGVAGQLTDTMAKRNTVIGTPFWMAPEVIQEIGYNCVADIWSLGITSIEMAEGKPPYADIHPMRAIFMIPTNPPPTFRKPELWSDDFTDFVKKCLVKNPEQRATATQLLQHPFIKNAKPVSILRDLITEAMEIKAKRHEEQQRELEEEEENSDEDELDSHTMVKTSVESVGTMRATSTMSEGAQTMIEHNSTMLESDLGTMVINSEDEEEEDGTMKRNATSPQVQRPSFMDYFDKQDFKNKSHENCNQNMHEPFPMSKNVFPDNWKVPQDGDFDFLKNLSLEELQMRLKALDPMMEREIEELRQRYTAKRQPILDAMDAKKRRQQNF
modifications: phosphorylated at the activation loop (T180) as purified from bacteria

What was measured:
[1] = molecular target: T1, SARAH domain of human RASSF5 …; experiment: SEC
co-IP = molecular target: the molecule itself; experiment: co-IP
AUC = molecular target: the molecule itself; experiment: AUC
SEC = molecular target: the molecule itself; experiment: SEC

Binder	binding compared to wild-type Mst2 (co-IP) [%]	further results
B1	–	binding result [1]: binds
B2	≥ 30	–
B3	≥ 30	–
B4	≥ 30	–
B5	≥ 30	–
B6	≥ 30	–
B7	≥ 30	–
B8	≥ 30	–
B9	–	stoichiometry N (AUC): 2
B10	–	stoichiometry N (SEC): 2
